Assay results published in patent publication US20150051136A1.

Key:
S100B [1] = test: BIAcore SPR, sRAGE amine-coupled to CM5 chip, S100B as analyte, steady state model
S100B [2] = test: cell-based or functional assay
[3] = biological target: HMGB1 (high mobility group box 1); test: cell-based or functional assay
[4] = biological target: HMGB1 (high mobility group box 1); test: HMGB1 ELISA (as in Liu et al. 2009)
[5] = biological target: HMGB1 (high mobility group box 1); test: BIAcore SPR, sRAGE amine-coupled to CM5 chip, HMGB1 as analyte, 1:1 Langmuir model

HMGB1 (high mobility group box 1), sequence (P09429 whole entry): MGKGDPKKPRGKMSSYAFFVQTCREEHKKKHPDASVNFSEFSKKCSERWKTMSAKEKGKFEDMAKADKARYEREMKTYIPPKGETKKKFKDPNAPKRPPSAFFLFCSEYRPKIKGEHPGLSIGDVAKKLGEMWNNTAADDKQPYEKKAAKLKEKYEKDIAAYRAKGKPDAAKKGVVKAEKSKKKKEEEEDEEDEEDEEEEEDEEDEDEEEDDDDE
S100B, sequence (D3DSN6 whole entry): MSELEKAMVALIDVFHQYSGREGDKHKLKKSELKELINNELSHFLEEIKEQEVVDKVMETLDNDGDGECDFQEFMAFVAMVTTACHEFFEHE
sRAGE^sf9 (human T7-sRAGE produced in baculovirus-infected sf9 insect cells), sequence (Q15109 23-340, tags or fused parts left off): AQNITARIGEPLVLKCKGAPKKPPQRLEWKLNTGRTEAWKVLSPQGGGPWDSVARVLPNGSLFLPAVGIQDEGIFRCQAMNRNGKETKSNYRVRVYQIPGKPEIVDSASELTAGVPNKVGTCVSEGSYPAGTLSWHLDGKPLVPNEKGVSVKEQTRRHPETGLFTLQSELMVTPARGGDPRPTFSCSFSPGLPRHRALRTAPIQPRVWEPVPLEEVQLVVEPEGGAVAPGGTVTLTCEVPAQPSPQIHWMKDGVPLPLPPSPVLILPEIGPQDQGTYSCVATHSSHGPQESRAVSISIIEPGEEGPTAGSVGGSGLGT
sRAGE^CHO (human T7-Gly-Ser-RAGE (23-340) polypeptide produced in CHO-CD14 cells), sequence (Q15109 other isoform, or with tags, fused parts or gaps): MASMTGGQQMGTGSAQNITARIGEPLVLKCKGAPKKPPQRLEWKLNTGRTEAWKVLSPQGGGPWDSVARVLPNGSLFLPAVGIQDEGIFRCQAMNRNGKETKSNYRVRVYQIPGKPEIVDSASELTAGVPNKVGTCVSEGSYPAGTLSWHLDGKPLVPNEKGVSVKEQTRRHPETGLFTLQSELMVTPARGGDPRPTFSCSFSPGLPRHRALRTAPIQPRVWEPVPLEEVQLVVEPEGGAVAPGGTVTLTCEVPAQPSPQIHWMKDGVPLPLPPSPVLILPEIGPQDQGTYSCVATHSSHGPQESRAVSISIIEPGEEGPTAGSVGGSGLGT
sRAGE^CHO(desialylated), sequence (Q15109 other isoform, or with tags, fused parts or gaps): as above

Substance | Kd (S100B [1]) [nM] | inhibition of s100B-induced NF-κB activity (luciferase reporter, HEK293-RAGE cells; 100 nM ligand, 100 nM sRAGE) (S100B [2]) [%] | inhibition of HMGB1-induced NF-κB activity (luciferase reporter, HEK293-RAGE cells; 100 nM ligand, 100 nM sRAGE) [3] [%] | Kd [4] [nM] | fold of the dissociation constant (Kd) against wild-type sRAGE [4] [fold] | Kd [5] [nM]
sRAGE^CHO(desialylated) (from UniProt Q15109 23-340) (receptor) | 25.3 | 18 | 25.8 |  |  | 
sRAGE^sf9 (human T7-sRAGE produced in baculovirus-infected sf9 insect cells) (from UniProt Q15109 23-340) (receptor) | 32 | 20.4 | 19.7 |  |  | 
sRAGE^CHO(N25T/N81T) (from UniProt Q15109 26-340) (receptor) |  |  | 0.3 | 521 | 10 | 
sRAGE^CHO (human T7-Gly-Ser-RAGE (23-340) polypeptide produced in CHO-CD14 cells) (from UniProt Q15109 23-340) (receptor) | 90.5 | 40.2 | 58.6 | 49.5 |  | 13.3
